Laboratory results reported in patent publication US20240059799A1 (Pfizer, published 2024).

T1: recombinant human TL1A (human, UniProt O95150 71-251)
T1 construct: homotrimer; biotinylated for SPR capture; the ELISA paragraphs say only 'recombinant TL1A'; also called TNFSF15
T1 chain: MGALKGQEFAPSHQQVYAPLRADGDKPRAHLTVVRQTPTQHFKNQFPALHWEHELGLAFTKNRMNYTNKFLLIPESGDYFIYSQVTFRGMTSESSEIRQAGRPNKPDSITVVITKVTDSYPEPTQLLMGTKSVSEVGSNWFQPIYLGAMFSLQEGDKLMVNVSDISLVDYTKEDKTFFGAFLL

T2: human IL-23 (human, UniProt P29460 23-328; Q9NPF7 20-189)
T2 construct: Heterodimer p40/p19; Whole entries as named; also called IL-23 Human; recombinant human IL-23
T2 sequence 1: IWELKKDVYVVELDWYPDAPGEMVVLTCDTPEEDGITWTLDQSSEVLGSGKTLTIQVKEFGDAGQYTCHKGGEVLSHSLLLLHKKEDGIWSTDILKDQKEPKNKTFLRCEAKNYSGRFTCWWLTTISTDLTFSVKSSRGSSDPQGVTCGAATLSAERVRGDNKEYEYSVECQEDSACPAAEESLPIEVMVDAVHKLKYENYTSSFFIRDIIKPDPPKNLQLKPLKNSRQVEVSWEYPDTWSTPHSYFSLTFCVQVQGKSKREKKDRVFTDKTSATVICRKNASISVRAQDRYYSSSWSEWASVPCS
T2 sequence 2: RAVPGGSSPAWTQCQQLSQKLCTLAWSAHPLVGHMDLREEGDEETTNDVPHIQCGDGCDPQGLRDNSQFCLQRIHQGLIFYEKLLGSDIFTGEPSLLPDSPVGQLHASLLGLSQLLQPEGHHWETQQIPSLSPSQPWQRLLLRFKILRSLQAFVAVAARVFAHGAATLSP

T3: recombinant human TL1A (human, UniProt O95150 71-251)
T3 construct: Homotrimeric cytokine; biotinylated with Sulfo-NHS-biotin where captured for SPR, coated unlabelled in ELISA, soluble in bioassays; also called TNFSF15
T3 chain: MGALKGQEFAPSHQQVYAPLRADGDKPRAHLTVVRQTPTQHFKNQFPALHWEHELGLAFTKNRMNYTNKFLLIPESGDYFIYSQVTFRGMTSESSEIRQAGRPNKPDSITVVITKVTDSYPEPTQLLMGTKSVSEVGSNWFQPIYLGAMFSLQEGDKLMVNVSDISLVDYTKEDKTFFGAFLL


Tests used:
recombinant human TL1A [1] = molecular target: T1, recombinant human TL1A; experiment: competition ELISA vs bio-TL1A-0002
Protocol: For this competition ELISA assay procedure, 96-well high binding plates (Corning, product number 3590) were coated with 1 μg/mL recombinant TL1A in 100 μL/well in Phospate Buffered Saline (PBS) overnight at 4° C. Plates were then blocked in PBS+0.02% casein solution and washed with PBS+0.05% Tween-20 following standard ELISA protocol. […] Plates were washed with PBS+0.05% Tween-20 following standard ELISA protocol, and Streptavidin-HRP (Southern Biotech, product number 7100-05) diluted to 1:10,000 in assay buffer was added to plates and incubated for 25-30 minutes at room temperature. Next, the plates were washed with PBS+0.05% Tween-20 following standard ELISA protocol, and then TMB substrate (BioFX Laboratories, catalog number TMBW-0100-01) was added to plates. Reactions were stopped after approximately 5 minutes by adding 0.18 M ortho-phosphoric acid to each well and absorbance was read at 450 nm.

human IL-23 [2] = molecular target: T2, human IL-23; experiment: SPR, bispecific held on captured biotinylated human TL1A, then human IL-23 injected (simultaneous binding)
Protocol: SPR was used to determine if the bispecific variants could simultaneously bind TL1A and IL-23, containing the p40 domain. For this analysis, a semi-quantitative SPR method was developed using Biacore™ T200 (GE Healthcare) instrumentation. […] The bispecific was injected for 90 seconds at a concentration of 20 μg/m L, a flow rate of 50 μL/minute, and captured to a level of approximately 40-150 RU. Next, recombinant human IL-23 was injected for 60 seconds and a flow rate of 50 μL/minute at a concentration range of 0.37-15 nM.

recombinant human TL1A [3] = molecular target: T3, recombinant human TL1A; experiment: SPR 37 C, biotinylated human TL1A captured, bispecific injected
Protocol: (§1) SPR was utilized to determine if the affinity constants of each arm of the bispecific variants binding human IL-23, containing the p40 subunit, and human TL1A were the same for each bispecific approach. For the analysis of the p40 binding arm, kinetic assays were conducted at 37° C. using a collection rate of 10 Hz on a Biacore™ 8 K+ instrument (GE Healthcare). An anti-human IgG antibody (anti-human Fc, GE Healthcare, 22-0648-88) was amine coupled to all four flow cells of a carboxymethylated dextran coated sensor chip (GE Healthcare,) using the manufacturer's recommended protocol. […] For the analysis of the TL1A binding arm, kinetic assays were conducted at 37° C. using a collection rate of 10 Hz on a Biacore™ T200 instrument (GE Healthcare).

human IL-23 [4] = molecular target: T2, human IL-23; experiment: SPR 37 C, bispecific captured by anti-human Fc, human IL-23 injected
Protocol: as §1

Binder	Bioactivity relative to TL1A-0002 (recombinant human TL1A [1]) [fold]	IC50 (recombinant human TL1A [1]) [nM]	further results
TL1A-0051 (antibody, human IgG1, kappa, V domains shown, IgG1/kappa; IGHV3-7*01 / IGKV1-39*01 grafts) VH: EVQLVESGGGLVQPGGSLRLSCAASGYDFTYYGISWVRQAPGKGLEWVAWISTYNGNTHYARMLQGRFTISRDNAKNSLYLQMNSLRAEDTAVYYCARENYYGSGAYRGGMDVWGQGTTVTVSS VL: DIQMTQSPSSLSASVGDRVTITCRASQSVSSYLAWYQQKPGKAPKLLIYDASNRATGVPSRFSGSGSGTDFTLTISSLQPEDFATYYCQQRSNWPWTFGQGTKVEIKR	1	4.5	
p40TL1A-0024 (bispecific antibody, human IgG1, kappa, dual cell, E/R, LS) heavy 1: EVQLVQSGAEVKKPGESLKISCKGSGYSFTTYWLGWVRQMPGKGLDWIGIMSPVDSDIRYSPSFQGQVTMSVDKSITTAYLQWNSLKASDTAMYYCARRRPGQGYFDFWGQGTLVTVSSASTKGPSVFPLAPSSKSTSGGTAALGCLVKDYFPEPVTVSWNSGALTSGVHTFPAVLQSSGLYSLSSVVTVPSSSLGTQTYICNVNHKPSNTKVDKKVEPKSCDKTHTCPPCPAPEAAGAPSVFLFPPKPKDTLMISRTPEVTCVVVDVSHEDPEVKFNWYVDGVEVHNAKTKPREEQYNSTYRVVSVLTVLHQDWLNGKEYKCKVSNKALPAPIEKTISKAKGQPREPQVYTLPPSREEMTKNQVSLTCLVKGFYPSDIAVEWESNGQPENNYKTTPPVLDSDGSFFLYSRLTVDKSRWQQGNVFSCSVLHEALHSHYTQKSLSLSPGK light 1: not shown heavy 2: QVQLVQSGAEVKKPGASVKVSCKASGYDYTYYGISWVRQAPGQGLEWMGWISTYNTGTHYAPSLQGRVTMTTDTSTSTAYMELRSLRSDDTAVYYCARESYYGSGAFRGGMDVWGQGTTVTVSSASTKGPSVFPLAPSSKSTSGGTAALGCLVKDYFPEPVTVSWNSGALTSGVHTFPAVLQSSGLYSLSSVVTVPSSSLGTQTYICNVNHKPSNTKVDKKVEPKSCDKTHTCPPCPAPEAAGAPSVFLFPPKPKDTLMISRTPEVTCVVVDVSHEDPEVKFNWYVDGVEVHNAKTKPREEQYNSTYRVVSVLTVLHQDWLNGKEYKCKVSNKALPAPIEKTISKAKGQPREPQVYTLPPSREEMTKNQVSLTCEVKGFYPSDIAVEWESNGQPENNYKTTPPVLDSDGSFFLYSKLTVDKSRWQQGNVFSCSVLHEALHSHYTQKSLSLSPGK light 2: not shown			Kd (human IL-23 [2]): 0.107 nM; koff (human IL-23 [2]): 0.000571 s⁻¹; kon (human IL-23 [2]): 5.32e+06 M⁻¹ s⁻¹; Kd (recombinant human TL1A [3]): 0.273 nM; koff (recombinant human TL1A [3]): 5.99e-05 s⁻¹; kon (recombinant human TL1A [3]): 219000 M⁻¹ s⁻¹; Kd (human IL-23 [4]): 0.9 nM; koff (human IL-23 [4]): 0.00157 s⁻¹; kon (human IL-23 [4]): 1.75e+06 M⁻¹ s⁻¹
TL1A-0047 (antibody, human IgG1, kappa, V domains shown, IgG1/kappa; VH graft on IGHV3-7*01) VH: EVQLVESGGGLVQPGGSLRLSCAASGYDFTYYGISWVRQAPGKGLEWVAWISTYNGNTHYARMLQGRFTISRDNAKNSLYLQMNSLRAEDTAVYYCARENYYGSGAYRGGMDVWGQGTTVTVSS VL: EIVLTQSPATLSLSPGERATLSCRASQSVSSYLAWYQQKPGQAPRLLIYDASNRATGIPARFSGSGSGTDFTLTISSLEPEDFAVYYCQQRSNWPWTFGQGTKVEIKR	1.2	5.3	
TL1A-0055 (antibody, human IgG1, kappa, V domains shown, IgG1/kappa; IGHV3-7*01 / IGKV3D-7*01 grafts) VH: EVQLVESGGGLVQPGGSLRLSCAASGYDFTYYGISWVRQAPGKGLEWVAWISTYNGNTHYARMLQGRFTISRDNAKNSLYLQMNSLRAEDTAVYYCARENYYGSGAYRGGMDVWGQGTTVTVSS VL: EIVMTQSPATLSLSPGERATLSCRASQSVSSYLAWYQQKPGQAPRLLIYDASNRATGIPARFSGSGSGTDFTLTISSLQPEDFAVYYCQQRSNWPWTFGQGTKVEIKR	1	4.4	
TL1A-0049 (antibody, human IgG1, kappa, V domains shown, IgG1/kappa; IGHV1-46*01 / IGKV1-39*01 grafts) VH: QVQLVQSGAEVKKPGASVKVSCKASGYDFTYYGISWVRQAPGQGLEWMGWISTYNGNTHYARMLQGRVTMTRDTSTSTVYMELSSLRSEDTAVYYCARENYYGSGAYRGGMDVWGQGTTVTVSS VL: DIQMTQSPSSLSASVGDRVTITCRASQSVSSYLAWYQQKPGKAPKLLIYDASNRATGVPSRFSGSGSGTDFTLTISSLQPEDFATYYCQQRSNWPWTFGQGTKVEIKR	1.1	4.9	

The remaining binders from weak to strong by IC50 (recombinant human TL1A [1]), led by results:

Bioactivity relative to TL1A-0002 (recombinant human TL1A [1]) [fold]	IC50 (recombinant human TL1A [1]) [nM]	Binder	further results
1	4.5	TL1A-0053 (antibody, human IgG1, kappa, V domains shown, IgG1/kappa; IGHV1-46*01 / IGKV3D-7*01 grafts) VH: QVQLVQSGAEVKKPGASVKVSCKASGYDFTYYGISWVRQAPGQGLEWMGWISTYNGNTHYARMLQGRVTMTRDTSTSTVYMELSSLRSEDTAVYYCARENYYGSGAYRGGMDVWGQGTTVTVSS VL: EIVMTQSPATLSLSPGERATLSCRASQSVSSYLAWYQQKPGQAPRLLIYDASNRATGIPARFSGSGSGTDFTLTISSLQPEDFAVYYCQQRSNWPWTFGQGTKVEIKR	
0.9	4.2	TL1A-0042 (antibody, human IgG1, kappa, V domains shown, TL1A-0002 heavy chain with light chain CDRs grafted on IGKV1-39*01 (DPK9)) VH: QVQLVQSGAEVKKPGASVKVSCKASGYDFTYYGISWVRQAPGQGLEWMGWISTYNGNTHYARMLQGRVTMTTDTSTRTAYMELRSLRSDDTAVYYCARENYYGSGAYRGGMDVWGQGTTVTVSS VL: DIQMTQSPSSLSASVGDRVTITCRASQSVSSYLAWYQQKPGKAPKLLIYDASNRATGVPSRFSGSGSGTDFTLTISSLQPEDFATYYCQQRSNWPWTFGQGTKVEIKR	
0.9	4.1	TL1A-0048 (antibody, human IgG1, kappa, V domains shown, IgG1/kappa; VH graft on IGHV1-2*02) VH: QVQLVQSGAEVKKPGASVKVSCKASGYDFTYYGISWVRQAPGQGLEWMGWISTYNGNTHYARMLQGRVTMTRDTSISTAYMELSRLRSDDTAVYYCARENYYGSGAYRGGMDVWGQGTTVTVSS VL: EIVLTQSPATLSLSPGERATLSCRASQSVSSYLAWYQQKPGQAPRLLIYDASNRATGIPARFSGSGSGTDFTLTISSLEPEDFAVYYCQQRSNWPWTFGQGTKVEIKR	
0.8	3.8	TL1A-0056 (antibody, human IgG1, kappa, V domains shown, IgG1/kappa; IGHV1-2*02 / IGKV3D-7*01 grafts) VH: QVQLVQSGAEVKKPGASVKVSCKASGYDFTYYGISWVRQAPGQGLEWMGWISTYNGNTHYARMLQGRVTMTRDTSISTAYMELSRLRSDDTAVYYCARENYYGSGAYRGGMDVWGQGTTVTVSS VL: EIVMTQSPATLSLSPGERATLSCRASQSVSSYLAWYQQKPGQAPRLLIYDASNRATGIPARFSGSGSGTDFTLTISSLQPEDFAVYYCQQRSNWPWTFGQGTKVEIKR	
0.8	3.5	TL1A-0052 (antibody, human IgG1, kappa, V domains shown, IgG1/kappa; IGHV1-2*02 / IGKV1-39*01 grafts) VH: QVQLVQSGAEVKKPGASVKVSCKASGYDFTYYGISWVRQAPGQGLEWMGWISTYNGNTHYARMLQGRVTMTRDTSISTAYMELSRLRSDDTAVYYCARENYYGSGAYRGGMDVWGQGTTVTVSS VL: DIQMTQSPSSLSASVGDRVTITCRASQSVSSYLAWYQQKPGKAPKLLIYDASNRATGVPSRFSGSGSGTDFTLTISSLQPEDFATYYCQQRSNWPWTFGQGTKVEIKR	
